First the molecules themselves.
B2: CXCR4膜蛋白 on Hela细胞 (receptor, UniProt P61073 1-352, looked up)
chain: MEGISIYTSDNYTEEMGSGDYDSMKEPCFREENANFNKIFLPTIYSIIFLTGIVGNGLVILVMGYQKKLRSMTDKYRLHLSVADLLFVITLPFWAVDAVANWYFGNFLCKAVHVIYTVNLYSSVLILAFISLDRYLAIVHATNSQRPRKLLAEKVVYVGVWIPALLLTIPDFIFANVSEADDRYICDRFYPNDLWVVVFQFQHIMVGLILPGIVILSCYCIIISKLSHSKGHQKRKALKTTVILILAFFACWLPYYIGISIDSFILLEIIKQGCEFENTVHKWISITEALAFFHCCLNPILYAFLGAKFKTSAQHALTSVSRGSSLKILSKGKRGGHSSVSTESESSSFHSS
notes: whole, on cells; also called Hela细胞过表达CXCR4膜蛋白; Hela细胞膜蛋白CXCR4

In test [1] the target is B2. Put plainly: FACS on Hela cells, recombinant antibody.
The target of test [2] is T1, 生物素标记SDF-1a配体(SKU# RBP48061, Reprokine) (UniProt P48061-2 22-89, biotin-labelled (site not stated)).
T1 construct: Bought biotinylated ligand; also called SDF-1α; CXCL12
In words: FACS on Hela cells, 0.1uM biotin-SDF-1a, SA-FITC.

B1: 1B5B10 (antibody, mouse IgG2b, kappa, V domains shown)
VH: DVQLQESGPGLVKPSQSLSLTCTVTGYSITSDYAWNWIRQFPGNKLEWMGYIDNSGSTNYNPSLRSRISITRDTSKNQFFLQLNSVTTEDTATYYCALNDYHYVMDYWGQGTSVTVSS
VL: DIQMTQSPASLSASVGETVTITCRPSENIYSYLAWYQQKQGKSPQLLVYSAKTLAEGVPLRFSGSYSGTHFSLRINSLQPEDFGSYYCQHHYGSPLTFGSGTKLELKR
notes: also called 1B5B10重组抗体; 鼠单抗1B5B10
B1: the binding result in test [1] is “binds”.

On to B2, for which the binding result in test [2] is “binds”.

(Values after patent CN117003876A (KAIKA BIO TECH SHANGHAI CO LTD, dated 2023).)
